According to patent US20210347913A1 (CRISPR THERAPEUTICS, published 2021):

Target: T1, anti-PTK7 antibody Ab181
T1 construct: Unmasked parent IgG1kappa; also called Ab181 IgG1kappa
Assay: phage display selection of peptide binders of Ab181 (Screen 1, X15/X19 library)

B1: mask peptide P2 (peptide)
peptide: HEEVHMRPNKLSLTWAYTGPQLR
notes: Found by phage display (Screen 1); fused through a cleavable linker in the masked constructs
binding result: binds
